Source: patent US20220204581A1, “MONOMERIC PEPTIDE MULTI-AGONIST […] THE GLP1 RECEPTOR AND NPY RECEPTORS” (SYRACUSE UNIVERSITY, published 2022)
Like-named read-outs stand apart in the source and are kept apart here. Where no end group is shown, it is not given here. The star is where a group is joined. azido = [N-]=[N+]=N*

T1: human NPY2-R (human, UniProt P49146)
T1 sequence: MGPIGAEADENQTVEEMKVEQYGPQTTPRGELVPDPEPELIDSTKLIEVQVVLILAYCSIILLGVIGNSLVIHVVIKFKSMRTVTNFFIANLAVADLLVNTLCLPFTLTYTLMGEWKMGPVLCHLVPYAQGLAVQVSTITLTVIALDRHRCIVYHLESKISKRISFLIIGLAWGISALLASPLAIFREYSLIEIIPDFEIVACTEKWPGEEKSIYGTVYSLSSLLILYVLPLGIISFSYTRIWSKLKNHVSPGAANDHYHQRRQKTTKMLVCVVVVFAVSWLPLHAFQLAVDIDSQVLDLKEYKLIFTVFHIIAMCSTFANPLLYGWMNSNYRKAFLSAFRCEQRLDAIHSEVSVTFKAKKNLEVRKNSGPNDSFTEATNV

B1: GEP44 (peptide)
peptide: HSQGTFTSDLSK(azido)YLEEEAVREFIAWLKNGGPSRHYLNLVTRQRY-NH2
B2: EP38 (peptide)
peptide: HGEGTFTSDLSKQMEEEAVRLFIEWLKNGGPSSTRQRY
modifications: C-terminal amidation; K12-azido modification
B3: EP44 (peptide)
peptide: HSQGTFTSDLSK(azido)QINEEEAVRLFIEWLKNGGPSRHYLNLVTRQRY-NH2

Assays:
human NPY1-R [1] = biological target: T2, human NPY1-R (human, UniProt P25929)
human NPY1-R [2] = biological target: T2, human NPY1-R; remark: listed apart in the source
human GLP-1R [3] = biological target: T3, human GLP-1R (human, UniProt P43220); assay: cell-based or functional assay
human NPY1-R [4] = biological target: T2, human NPY1-R; assay: cell-based or functional assay
human GLP-1R [5] = biological target: T3, human GLP-1R; assay: cell-based or functional assay; remark: listed apart in the source
human NPY2-R = biological target: T1, human NPY2-R; assay: cell-based or functional assay
human NPY1-R [6] = biological target: T2, human NPY1-R; assay: cell-based or functional assay; remark: listed apart in the source

| Molecule | EC50 Y1R (human NPY1-R [1]) [nM] | EC50 (agonism of the Y1-R) (human NPY1-R [2]) [nM] | EC50 (human GLP-1R [3]) [nM] | EC50 (agonism of the Y1-R) (human NPY1-R [4]) [nM] | EC50 GLP1R (human GLP-1R [5]) [nM] | EC50 Y2R (human NPY2-R) [nM] | EC50 Y1R (human NPY1-R [6]) [nM] |
| --- | --- | --- | --- | --- | --- | --- | --- |
| PYY1-36 (ligand) | 12 | 42 | – | – | – | – | – |
| B1 | – | – | 300000 | 83 | 0.33 | 10 | 24 |
| B2 | – | – | – | – | 0.08 | > 300 | – |
| B3 | – | – | – | – | – | – | > 100 |
